Experimental data from CN1803842A (UNIV NANJING MEDICAL, dated 2006).

Tests used:
Aβ1-42 = target: T1, Aβ1-42 (UniProt P05067 672-713); assay: Western blot, 20 μg Aβ1-42 per lane on PVDF, purified scFv 1:5, detection with anti-c-myc antibody and HRP goat anti-mouse IgG
T1 construct: domain: Aβ1-42; Sample loaded on the Tricine SDS-PAGE gel for the Western blot (20 μg per lane); also called Aβ 42; 合成的Aβ多肽

BSA = target: T2, BSA (UniProt P02769 25-607); assay: Western blot, 20 μg BSA per lane, purified scFv 1:5, detection with anti-c-myc antibody
T2 construct: Control protein in the Western blot

- binding result (Aβ1-42): binds
- binding result (BSA): no binding
B1: E3单链抗体 (抗Aβ可溶性单链抗体) (scFv)
scFv: QVQLQESGPGLVKPSETLSLTCAVSGYSISSGYYWGWIRQPPGKGLEWIGSIYHSGSTYYNPSLKSRVTISVDTSKNQFSLKLSSVTAADTAVYYCARDLGSSVSWGQGTLVTVSSGGGGSGGGGSGGSALDIQMTQSPSSLSASVGDRVTISCRMSQGISNYLAWYQQKPGKVPKLLIYAASTLQSGVPSRFSGSGSGTDFTLTISSLQPEDVATYYCQKYNSALVTFGQGTKLEIKR
notes: Soluble scFv expressed in E. coli HB2151, purified on His-Trap, about 31 kD; also called E3scFv; E3 scFv; not shown: C-terminal tags of the pHEN2 vector, implied by His-Trap purification and detect
